Experimental data as given in publication doi:10.1101/851345.

Experiments:
[1] = molecular target: TerS^P74-26, small terminase of the thermophilic bacteriophage P74-26 (gp83) (bacteriophage P74-26); assay: SEC-MALS
[2] = molecular target: TerL^P74-26, large terminase of bacteriophage P74-26 (bacteriophage P74-26)

TerS^P74-26, small terminase of the thermophilic bacteriophage P74-26 (gp83) (natural protein)
stoichiometry N [1]: 9 | ATPase activity of TerL^P74-26 upon mixing with gp83, no DNA present [2]: 4.4 fold
